From the supplement of paper PMC10567573

B1: GMCL1 (parent)
chain: RPDTGDDAAGHGFCYCAGSHKRKR
B2: CPXM2 (parent)
chain: TASTKNCMVGYDMGATRCDFTLSK

Variants of: B1
Assay: protein stability index of a GFP-peptide fusion (GPS, HEK-293T) (PSI 1-6); higher = more stable
Conditions: c terminus: a fixed tail appended
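Also: lentivirally expressed fusions sorted by FACS into six bins by GFP to DsRed ratio, PSI derived from sequencing read proportions per bin multiplied by bin number.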

Protein stability index, by site and new letter:
G12: E 2.9; W 2.36; V 3.73; T 3.62; Q 3.16; I 3.02; L 2.38; K 3.21; S 2.88; N 3.14; M 2.79; C 2.45; Y 2.71; A 2.52; D 3.14; H 3.05; F 3.02; R 3.11; P 3.1
D6: P 2.96; V 2.93; C 3.8; S 2.97; G 3.16; F 2.73; L 3.13; E 3.46; M 2.79; R 3.23; H 2.8; W 2.99; A 3.21; Y 3.15; T 2.89; N 3.57; I 3.05; Q 3.46; K 3.27
A9: R 3.46; G 3.43; N 3.52; T 3.55; C 3.89; D 3.81; Y 3.05; Q 3.06; I 2.65; W 2.96; K 3.07; E 3.05; V 2.96; L 2.71; M 2.96; S 2.7; H 2.48; P 3.01; F 2.72
D3: N 3.31; K 3.62; Q 2.51; T 2.86; V 3.91; A 2.62; Y 3.15; I 3.29; H 3.4; F 2.76; P 3.64; W 3.04; M 2.3; G 2.19; L 3.14; S 3.14; R 3.19; E 2.41; C 2.97
C16: K 4.81; V 4.72; N 4.56; T 4.74; W 4.36; R 4.59; H 3.87; L 4.11; D 5.04; M 4.17; G 4.85; S 4.97; Y 4.09; I 4.57; P 4.71; E 5.33; A 4.94; Q 4.92; F 4.72
C14: R 4.87; W 3.82; F 3.88; N 4.62; K 4.98; P 4.31; D 4.75; V 4.3; H 4.7; T 4.89; Q 4.7; M 4.9; E 4.99; L 3.66; A 4.73; S 5.02; G 4.85; Y 4.88; I 4.3
F13: S 2.84; Y 2.65; E 3.99; W 3.45; N 3.4; T 3.34; V 3.55; R 2.94; D 3.82; I 3.02; K 3.35; A 3.12; Q 3.9; C 2.19; H 3.86; L 2.87; M 3.25; G 3.69; P 3.55
T4: W 2.71; N 2.97; K 3.14; C 2.14; M 2.98; Y 2.87; F 3.28; Q 3.47; P 2.96; L 2.81; A 3.06; D 3.79; S 3.06; I 3.06; G 3.93; R 3.6; E 3.16; V 3; H 3.11
G5: F 2.59; P 3.48; N 3.17; M 2.84; W 2.59; C 3.63; I 3.28; R 3.15; A 3.37; K 3.45; L 3.1; S 3.5; Y 3.27; T 2.97; H 2.48; Q 2.87; E 2.93; V 2.99; D 2.89
Y15: R 3.41; K 2.5; V 2.8; H 2.98; M 2.89; G 3.35; D 3.36; F 2.6; L 2.84; S 2.77; P 3.36; I 3.09; E 2.77; A 3.12; C 2.68; N 2.43; T 2.51; W 2.82; Q 2.74
A8: R 3.08; D 2.97; P 3.09; W 3.38; Y 2.61; H 3.61; G 3.11; L 2.36; F 2.61; V 3.18; S 3.72; I 3.06; E 3.26; T 2.73; M 2.85; N 2.96; C 3.23; K 2.94; Q 3.16
R1: T 2.97; E 2.84; G 3.97; N 2.83; V 2.5; L 3.2; A 2.89; D 2.92; I 2.34; Y 2; W 3.2; C 2.99; M 3.16; P 2.71; Q 2.98; H 3.08; F 1.76; S 2.96; K 2.99
D7: P 3.28; N 3.13; Y 2.99; H 3.09; F 2.83; Q 2.83; S 3.47; G 3.3; E 3.95; C 3.02; W 2.2; V 3.16; L 3.03; K 3.03; I 3.08; T 3.49; M 3.44; R 3.51; A 3.46
G10: W 2.84; S 2.95; Q 3.36; D 3.37; A 2.86; M 3.2; P 2.73; N 3.71; I 2.71; T 3.18; F 2.9; E 3.14; H 3.1; R 2.81; L 2.36; C 2.78; V 3.49; Y 2.91; K 3.22
P2: C 3.23; R 2.85; A 3.02; W 3.4; H 2.96; Q 2.91; I 3.08; L 2.77; D 3.46; E 3.14; F 2.91; Y 3.41; N 3.27; K 3.35; V 2.89; G 3.01; T 2.3; S 2.95; M 3.05
A17: D 3.68; E 3.61; F 2.2; C 2.05
H11: M 3.15; C 2.47; T 4.18; A 3.64; L 3.14; W 2.95; Y 2.84; R 3.43; P 3.21; Q 3.22; F 3.27; E 3.49; V 2.75; S 3.24; G 3.18; D 3.45; K 3.16; N 2.32; I 3.26

Variants of: B2
Assay: as above
Conditions: c terminus: a fixed tail appended

Protein stability index, by site and new letter:
S23: W 1.86; R 3.34; T 1.94; P 2.59; Q 2.26; N 2.6; V 2.3; Y 2.01
K24: D 2.37; F 4.01; P 2.35; N 2.03; A 2.43; H 2.87; Q 1.82; S 2.22; C 2.38; Y 2.73; R 1.56; V 2.78; G 1.78; I 3.76; T 1.62; L 1.52; M 2.85; E 2.62
